Data published in patent US20020081280A1.
Where “and” joins values, the source holds several entries; their conditions need not be identical. Identical values can stand only once.

How the values were obtained:
[1] = target: cellular integrins on HUVEC cells; experiment: 125I-Ad5lucRGD binding to HUVEC cells at 4 °C, penton base at 100 µg/ml; competitor Ad5lucRGD
[2] = target: coxsackievirus and adenovirus receptor (CAR) on human cells (human) (UniProt P78310); experiment: cell-based or functional assay
UniProt P78310, sequence (P78310 20-365): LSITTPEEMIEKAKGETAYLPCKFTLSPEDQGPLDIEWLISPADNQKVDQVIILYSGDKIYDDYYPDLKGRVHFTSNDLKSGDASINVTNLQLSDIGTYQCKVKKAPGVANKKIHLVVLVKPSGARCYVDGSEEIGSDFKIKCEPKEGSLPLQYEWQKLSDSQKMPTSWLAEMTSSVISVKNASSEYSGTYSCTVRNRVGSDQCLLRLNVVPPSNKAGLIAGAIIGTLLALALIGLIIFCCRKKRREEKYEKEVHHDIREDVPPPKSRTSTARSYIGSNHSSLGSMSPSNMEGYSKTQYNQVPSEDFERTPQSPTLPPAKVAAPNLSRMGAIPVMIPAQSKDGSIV

With “recombinant human adenovirus serotype 2 penton base protein, expressed in Sf9 cells (from UniProt P03276 1-571)” as the substance, how does the percent decrease of bound virus radioactivity [1] read?
The percent decrease of bound virus radioactivity was 25%.

With “AdCMVLuc virions (E1-deleted Ad5 vector with unmodified wild-type fibers) (from UniProt P11818 1-581)” as the substance, how does the blockade of luciferase gene transfer by knob competition, HeLa and SCCHN cell lines (FaDu, SCC-4, SCC-25) [2] read?
Its blockade of luciferase gene transfer by knob competition, HeLa and SCCHN cell lines (FaDu, SCC-4, SCC-25) is greater than 90%.

And the gene transfer to SKOV3.ipl cells blocked by fiber knob [2]?
The gene transfer to SKOV3.ipl cells blocked by fiber knob was greater than 90%.

What about the luciferase activity in 293 cells blocked by recombinant knob protein (100 µg/ml) [2] of the same substance?
The luciferase activity in 293 cells blocked by recombinant knob protein (100 µg/ml) was 85 to 93%.

What about the luciferase activity in SKOV3.ipl cells blocked by excess fiber knob [2] of the same substance?
The luciferase activity in SKOV3.ipl cells blocked by excess fiber knob was 82% and 91%.

And the luciferase activity in ovarian cancer ascites cells blocked by excess fiber knob [2]?
Its luciferase activity in ovarian cancer ascites cells blocked by excess fiber knob is 90%.

And the reduction of luciferase activity in CaOV-3 cells by fiber knob blockade, dose 3x10^6 PFU [2]?
The reduction of luciferase activity in CaOV-3 cells by fiber knob blockade, dose 3x10^6 PFU was 55%.

What about the reduction of luciferase activity in UCI-101 cells by the fiber knob block [2] of the same substance?
Its reduction of luciferase activity in UCI-101 cells by the fiber knob block is 94% and 97%.
